Series [1] can be described thus: Rat pharmacokinetics of cholesterol conjugates, Calvert study (Table 4 protocol). As to conditions: for bioavailability: male. The procedure:
For PIE12 monomer conjugates, in-life studies were performed by Invitek (Hayward, Calif.). Trimeric conjugate in-life studies were performed at Navigen (Salt Lake City, Utah). […] At each timepoint, plasma was obtained using lithium heparin. […] Plasma samples were stored at −80° C. and shipped prior to bioanalysis.
The column temperature was maintained at 70° C.
Fifty microliter aliquots of plasma for each time point was precipitated with 2.5 volumes of ice-cold acetonitrile containing 2% trifluoroacetic acid (v/v) and 370 nM CPT12 as internal standard. […] The column temperature was maintained at 70° C.
CPT31 in Rat Plasma-Calvert Study
Fifty microliter aliquots of plasma for each time point was precipitated with 5 volumes of ice-cold acetonitrile containing 1% formic acid (v/v). No internal standard was used. […] The column temperature was maintained at 40° C.
All of the PK data presented in Table 3 was generated using the same animal protocols and similar bioanalytical methods. Different animal protocols and improved bioanalytical methods were used to generate the data in Table 4 (all PK fitiing was performed using WinNonlin software).

Series [2] can be described thus: Solubility in standard aqueous buffers.
The nature of series [3]: Rodent pharmacokinetics of PIE12-trimer and conjugates (Table 3 protocol). The settings on record: rats. Type of series: in vivo, Sprague Dawley rats. The protocol: At each timepoint, plasma was obtained using lithium heparin.
Samples were spiked with an internal standard then precipitated with two volumes of 98% acetonitrile/2% Formic acid. Supernatants were analyzed by LC/MS/MS using an Agilent HPLC system (Waters X-Bridge BEH C18 column) paired to an AB Sciex API 3000 triple-quad mass spectrometer using MRM methods. Lipid conjugates required lower source temperatures (300° C. vs 500° C.) for improved reproducibility.

Series [4] relates to JRFL (R5) luciferase reporter pseudovirions on HOS-CD4-CCR5. Briefly: Pseudovirion entry assay, JRFL. In kind it is cell-based, HIV-1. The protocol:
Pseudovirion assays were performed as previously described (Welch et al., 2010, J. Virol. 84:11235-44; Welch et al., 2007, Proc. Natl. Acad. Sci. 104:16827-16833, each of which is incorporated herein by reference in its entirety). Briefly, a six-point dilution series of each inhibitor was generated in quadruplicate on HOS-CD4-CXCR4 (for HXB2) or HOS-CD4-CCR5 (for JRFL) monolayers in 96 well plates, after which HXB2 (X4) or JRFL (R5) luciferase reporter pseudovirions were added. After 2 days, cells were lysed using GloLysis buffer (Promega) and BrightGlo luciferase substrate (Promega) was added. Luminescence was read on a PolarStar Optima (BMG) plate reader and normalized to uninhibited controls. Inhibition curves were plotted and fit to a standard IC50 equation for normalized data [(1−c/(IC50+c)], weighting each point by its standard error using KaleidaGraph (Synergy Software). Reported IC50 values are the average of at least two independent quadruplicate assays.

Series [5] is described as follows: Non-human primate pharmacokinetics. Type of series: in vivo, cynomolgus monkeys. The procedure:
Non-Human Primate Pharmacokinetics
In-life was performed by Calvert Laboratories (Scott Township, Pa.). […] Upon IV dosing, 1 ml blood samples were collected at 0.083, 0.167, 0.25, 0.5, 1, 2, 4, 8, 16 and 24 h post-dose into chilled tubes containing K2EDTA, mixed by inversion, and centrifuged (3000 rpm, 4° C., 15 min) to isolate plasma. Plasma was stored at −80° C. until bioanalysis.
Following a 13-day washout period, study animals were administered a single subcutaneous dose of CPT31 (10 mg/ml in 50 mM HEPES, pH 7.4) into the loose skin of the back between the shoulder blades at a dose of 3 mg/kg. Plasma samples were collected at pre-dose, 0.25, 0.5, 1, 2, 4, 8, 16, 24 and 48 hours post-dose. Collected blood samples were treated as described above. The pre-dose sample confirmed drug levels were below the lower limit of quantification (5.00 nM).
CPT31 in Monkey Plasma-Calvert Study
The internal standard, CPT31-IS was synthesized with an additional glycine on each PIE12-2 monomer (three in total), increasing the molecular mass by 171.1 Da. Plasma samples (200 μl) were spiked with CPT31-IS to a concentration of either 60 or 150 nM, then precipitated in 2% NH4OH in acetonitrile (500 μl). Following centrifugation, the supernatant was applied to a strong anion exchange solid-phase extraction 96-well plate (SOLAμ SAX, 2 mg/ml 96-well plate). The anion exchange plate was first conditioned with 400 μl of 2% NH4OH in methanol, followed by 400 μl of 2% NH4OH in water. The precipitated supernatant (500 μl) was then loaded into each well, followed by washing with 500 μl of 2% NH4OH in water, then 500 μl of methanol. Sample was eluted using two 50 μl aliquots of 2% formic acid in methanol.
LC-MS analysis was conducted using an Agilent Infinity 1290 HPLC system paired to an Agilent 6450A Q-TOF mass spectrometer equipped with a Dual Jet Spray ESI source. […] Samples were analyzed against a standard curve of CPT31 from 5.00-2,000 nM.

The next series deals with HSA (Homo sapiens, UniProt P02768). As to conditions: cited from earlier work.
Sequence of HSA (P02768 25-609): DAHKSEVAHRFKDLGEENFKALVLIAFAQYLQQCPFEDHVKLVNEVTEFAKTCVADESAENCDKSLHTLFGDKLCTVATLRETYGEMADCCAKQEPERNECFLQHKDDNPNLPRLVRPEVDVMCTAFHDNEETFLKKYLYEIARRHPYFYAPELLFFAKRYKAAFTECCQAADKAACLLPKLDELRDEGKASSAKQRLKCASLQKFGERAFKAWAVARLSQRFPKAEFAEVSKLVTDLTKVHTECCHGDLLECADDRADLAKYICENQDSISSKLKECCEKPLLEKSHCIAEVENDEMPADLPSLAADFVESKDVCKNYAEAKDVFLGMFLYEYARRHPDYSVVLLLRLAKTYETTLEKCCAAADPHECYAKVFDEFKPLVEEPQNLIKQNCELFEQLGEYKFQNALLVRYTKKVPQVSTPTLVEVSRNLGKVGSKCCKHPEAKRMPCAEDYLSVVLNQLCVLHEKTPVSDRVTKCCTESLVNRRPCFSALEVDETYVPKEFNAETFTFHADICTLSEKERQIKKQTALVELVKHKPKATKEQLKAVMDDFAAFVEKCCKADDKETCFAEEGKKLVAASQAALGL
For series [6] the following is noted: humans; cited from earlier work.
[7] abbreviates: rats, SC, 1.0 mg/kg, plasma, median, updated protocols.
The mark [8] stands for this setting: rat, in vivo, IV, 1.0 mg/kg, plasma, median.
Where [9] appears, read: rat, in vivo, SC, 1.0 mg/kg, plasma, median.
Where [10] appears, read: rats, IV, 1.0 mg/kg, plasma, median, updated protocols.

The text below walks through data of patent publication US10487121B2, “D-peptide inhibitors of HIV entry and methods of use” (priority 2016, dated 2019).

≈ marks a conversion by molar mass, not a printed value. Numbered stars: 1 amine (or outer) side, 2 acyl side, 3 side chain; on linkers, the order of the positions; unused ones are H or OH. Bridge positions count the residues as written; N and C are the ends. Square brackets hold non-standard residues; d marks the D form. I, II: the chains in the order shown. X1 = CC(C)CCC[C@@H](C)[C@H]1CC[C@H]2[C@@H]3CC=C4C[C@@H](OC(=O)NCCOCCOCCOCCOCCC(=O)NCCOCCOCCOCCOCCOCCOCCOCCOCCOCCOCCOCCOCCOCCOCCOCCOCCOCCOCCOCCOCCOCCOCCOCCOCCOCCOCCOCCOCCC(=O)NC(CCC(=O)[*:1])(CCC(=O)[*:2])CCC(=O)[*:3])CC[C@]4(C)[C@H]3CC[C@]12C; PEG4 = NCCOCCOCCOCCOCCC(=O)O Bounds are passed on as bounds.

What is called bioavailability is dose-corrected exposure relative to a reference, in per cent. Low readings indicate little systemic uptake, high ones much systemic uptake. In general, AUC(0-inf) refers to total exposure, with the tail of the curve extrapolated. A higher AUC(0-inf) goes with high exposure. By Cmax is commonly meant the peak of the concentration-time curve. What is called Tmax is the time from dosing to the highest level. Broadly, the solubility is how much of the substance goes into solution per volume. The low end stands for a poorly soluble substance, the high end for a readily soluble substance. Regarding `CC(=O)N[C@H](Cc1c[nH]cn1)C(=O)N1CCC[C@@H]1C(=O)N[C@@H]1CSSC[C@H](C(=O)N[C@H](CCC(=O)O)C(=O)N[C@H](CC(C)C)C(=O)NCC(=O)N[C@H](CCCCNC(=O)CCOCCOCCOCCOCCNC(=O)CCOCC(COCCC(=O)NCCOCCOCCOCCOCCC(=O)NCCCC[C@@H](NC(=O)CNC(=O)[C@@H](CC(C)C)NC(=O)[C@@H](CCC(=O)O)NC(=O)[C@H]2CSSC[C@@H](NC(=O)[C@H]3CCCN3C(=O)[C@@H](Cc3c[nH]cn3)NC(C)=O)C(=O)N[C@H](CC(=O)O)C(=O)N[C@H](Cc3ccc(O)cc3)C(=O)N3CCC[C@@H]3C(=O)N[C@H](CCC(=O)O)C(=O)N[C@H](Cc3c[nH]c4ccccc34)C(=O)N[C@H](CCC(N)=O)C(=O)N[C@H](Cc3c[nH]c4ccccc34)C(=O)N[C@H](CC(C)C)C(=O)N2)C(N)=O)(COCCC(=O)NCCOCCOCCOCCOCCC(=O)NCCCC[C@@H](NC(=O)CNC(=O)[C@@H](CC(C)C)NC(=O)[C@@H](CCC(=O)O)NC(=O)[C@H]2CSSC[C@@H](NC(=O)[C@H]3CCCN3C(=O)[C@@H](Cc3c[nH]cn3)NC(C)=O)C(=O)N[C@H](CC(=O)O)C(=O)N[C@H](Cc3ccc(O)cc3)C(=O)N3CCC[C@@H]3C(=O)N[C@H](CCC(=O)O)C(=O)N[C@H](Cc3c[nH]c4ccccc34)C(=O)N[C@H](CCC(N)=O)C(=O)N[C@H](Cc3c[nH]c4ccccc34)C(=O)N[C@H](CC(C)C)C(=O)N2)C(N)=O)NC(=O)CCOCCOCCOCCOCCOCCOCCOCCOCCOCCOCCOCCOCCOCCOCCOCCOCCOCCOCCOCCOCCOCCOCCOCCOCCNC(=O)CCN2C(=O)CC(S[C@H]3CC[C@@]4(C)C(=CC[C@H]5[C@@H]6CC[C@H]([C@H](C)CCCC(C)C)[C@@]6(C)CC[C@@H]54)C3)C2=O)C(N)=O)NC(=O)[C@@H](CC(C)C)NC(=O)[C@@H](Cc2c[nH]c3ccccc23)NC(=O)[C@@H](CCC(N)=O)NC(=O)[C@@H](Cc2c[nH]c3ccccc23)NC(=O)[C@@H](CCC(=O)O)NC(=O)[C@H]2CCCN2C(=O)[C@@H](Cc2ccc(O)cc2)NC(=O)[C@@H](CC(=O)O)NC1=O` (some centres unmarked) [CPT24], the bioavailability in series [1] (rat, in vivo, sc, 1 mg/kg) was 51.4%; in series [3] (Sprague Dawley, rat, SC, 1.0 mg/kg, plasma, median) it was 73%. Besides, the AUC(0-inf) in series [1] (rat, in vivo, iv, 1 mg/kg) came to 4.66 µM·h; in series [1] (rat, in vivo, sc, 1 mg/kg), 2.39 µM·h; in series [3] (setting [8]), 2.39 µM·h; in series [3] (setting [9]), 1.75 µM·h. In addition, the C0 in series [1] (rat, in vivo, iv, 1 mg/kg) stood at 4530 nM; in series [3] (setting [8]) it was 1110 nM. In addition, the Vd in series [1] (rat, in vivo, iv, 1 mg/kg) worked out at 0.057 L/kg; in series [3] (rat, in vivo, IV, 1.0 mg/kg, plasma, median, read-out: Vz (obs)), 0.13 L/kg. The half-life was 1.62 h in series [1] (rat, in vivo, iv, 1 mg/kg); 3.8 h in series [1] (rat, in vivo, sc); 3.88 h in series [1] (rat, in vivo, sc, 1 mg/kg); 1.77 h in series [3] (rat, in vivo, IV, 1.0 mg/kg, plasma, median, read-out: T1/2 (converted)); 1.8 h in series [3] (rat, in vivo, IV, read-out: IV half-life (converted)); 2.71 h in series [3] (rat, in vivo, SC, 1.0 mg/kg, plasma, median, read-out: T1/2 (converted)). The half-life in series [3] (rat, in vivo, SC, read-out: SC half-life (converted)) is 2.7 h. The Cmax in series [1] (rat, in vivo, sc, 1 mg/kg) was 395 nM; in series [3] (setting [9]) it was 304 nM. Also, the Tmax in series [1] (rat, in vivo, sc, 1 mg/kg) was 2 h; in series [3] (setting [9]) it was 4 h. In series [1] (setting [7]), this compound gave an F of 51%. This compound also yielded a solubility in series [2] of around 40 mg/mL (≈ 4.53 mM). In series [3] (rat, in vivo, IV, 1.0 mg/kg, plasma, median, read-out: Cl (obs) (converted)), the clearance was 0.783 mL/min/kg. In addition, in series [3] (IV), the “increase of IV half-life vs PIE12-trimer” value is recorded as above 3 fold. Moreover, the “reduction of clearance vs PIE12-trimer” value in series [3] (IV) is recorded as around 18 fold. The “extension of SC (apparent) half-life vs PIE12-trimer” value in series [3] (SC, terminal phase elimination) was above 3 fold.

On to “CPT24-5kD: includes 5 kDa of linear polydisperse PEG between PIE12-trimer and thiocholesterol”, for which the “prolonged half-life compared to CPT24” value in series [1] (rats, IV) is given as 3.5 fold. Further, in series [1] (setting [10]), the “AUC(0-inf)” value was 4.578 µM·h, the C0 was found to be 1100 nM, the “Cl (obs)” value amounted to 0.243 mL/min/kg and the T1/2 was 5.62 h. The “Vz (obs)” value in series [1] (setting [10]) is 0.118 L/kg. Besides, the “prolonged half-life compared to CPT24” value in series [1] (rats, SC) amounted to 1.8 fold. Moreover, in series [1] (setting [7]), the “AUC(0-inf)” value amounted to 1.557 µM·h, the peak level (Cmax) was 89 nM and the T1/2 came out at 7.21 h. Besides, in series [4], the “antiviral potency, in words” value is “comparable to CPT24”.

Take “I: Ac-[dH][dP][dC][dD][dY][dP][dE][dW][dQ][dW][dL][dC][dE][dL]G[PEG4][dK]-NH2 / II: Ac-[dH][dP][dC][dD][dY][dP][dE][dW][dQ][dW][dL][dC][dE][dL]G[PEG4][dK]-NH2 / III: Ac-[dH][dP][dC][dD][dY][dP][dE][dW][dQ][dW][dL][dC][dE][dL]G[PEG4][dK]-NH2 (disulfide I:3-I:12, II:3-II:12, III:3-III:12; linker I:17-II:17-III:17 via X1) [CPT31]”: the half-life in series [5] (cynomolgus monkey, in vivo, non-human primates, SC, read-out: subcutaneous half-life (converted)) is 18 h; in series [1] (rat, in vivo, iv, 1 mg/kg), 3.25 h; in series [1] (rat, in vivo, sc), 5.4 h. Moreover, the bioavailability in series [5] (cynomolgus monkey, male cynomolgus monkeys, SC, 3.0 mg/kg, plasma, median) is 80.4%; in series [1] (rat, in vivo, sc, 1 mg/kg), 55%. Further, the adverse events entry in series [5] (cynomolgus monkeys, IV 1 mg/kg then SC 3 mg/kg) is on record as “no adverse events were observed”. The compound also showed a solubility in series [2] of around 40 mg/mL.

Regarding enfuvirtide, the “HSA binding, in words” value at HSA is on record as “highly HSA bound”. Moreover, the “volume of distribution, in words” value in series [6] is “reduced volume of distribution”.
